Experimental data as given in patent US20200362046A1 (published 2020).

Tests used:
[1] = biological target: KIR-Fc (purified recombinant "target"-Fc protein); experiment: phage ELISA on purified target-Fc; signal over non-specific control (e.g., IgG1-Fc); average where several clones share the sequence
[2] = biological target: T1, PD-L1-Fc (purified recombinant "target"-Fc protein) (UniProt Q9NZQ7 19-238); experiment: phage ELISA on purified target-Fc; signal over non-specific control (e.g., IgG1-Fc)
T1 construct: also called B7-H1; not shown: Fc part of the fusion
T1 sequence (Q9NZQ7 19-238 limits assumed): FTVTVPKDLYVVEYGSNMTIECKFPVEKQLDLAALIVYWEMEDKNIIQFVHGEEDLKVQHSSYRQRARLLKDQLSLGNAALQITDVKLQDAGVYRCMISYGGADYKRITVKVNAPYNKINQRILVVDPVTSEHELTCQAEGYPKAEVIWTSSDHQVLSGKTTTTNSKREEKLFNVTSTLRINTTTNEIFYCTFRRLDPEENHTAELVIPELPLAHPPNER
Method: Selections were also performed using F1, F2, F3. C1 & C2 trinucleotide phosphoramidite libraries. In most cases, libraries were pooled prior to use in selection. By combining equal volumes of the individual libraries. Pool F (libraries F1, F2 and F3) and Pool C (libraries C1 and C2) were generated. These libraries were used in selections for DBDpp binders to 4-1BB/CD137 as well as a larger panel of purified recombinant “target”-Fc proteins, including CD47, CTLA4. DR5, KIR. LAG3, OX40, PD1, PD-L1 and TIM3. (Many of these targets are considered immuno-regulatory factors (Pardoll et al., Nat. Rev. Cancer 12:252-264 (2012)). After incubation of the target with the pools of DBDpp phage libraries, bound phage-target complexes were captured and separated from unbound phage with protein A beads (target proteins were Fc fusions). Alter three rounds of selection, rescued phage clones were screened by ELISA for binding to the selected target.
For each target, approximately 90 DBDpp phage clones were screened by ELISA for binding to the target protein and as well as a non-specific control (e.g., IgG1-Fc). […] In some instances, for the ELISA screening plate in which the majority of DBDpp clones were positive, the entire plate was sequenced.

[3] = biological target: KIR-Fc (purified recombinant "target"-Fc protein); experiment: as above

B1: SEQ ID NO 35 (designed binder)
chain: MGSWSEFYNRLDAIESRLLALGGSEAELALFEIQIARFEKVLQAYKGKGNPEVEALRGEARAIFAELYAYRHN
- ELISA ratio [1]: 8.4

B2: SEQ ID NO 36 (designed binder)
chain: MGSWYEFYNRLYAIEIRLYALGGSEAELAAFEKEIAAFESELQAYKGKGNPEVERLRVRAAKIRVILQAYRHN
- ELISA ratio [1]: 4.24

B3: SEQ ID NO 60 (designed binder)
chain: MGSWYEFTVRLEAIHERLKALGGSEAELAAFEKEIAAFESELQAYKGKGNPEVEILRDDAAFIRRFLQAYRHN
notes: also called DBDpp; library F3
- ELISA ratio [2]: 17.3 ratio

B4: SEQ ID NO 61 (designed binder)
chain: MGSWYEFDDRLNAIHDRLQALGGSEAELAAFEKEIAAFESELQAYKGKGNPEVEDLRDDAAFIRRFLQAYRHN
notes: also called DBDpp; library F3
- ELISA ratio [2]: 12.2 ratio

B5: SEQ ID NO 37 (designed binder)
chain: MGSWLWFKIFLAEIKYFLEALGGSEAELAAFDFEIHAFHVELFAYKGKGNPEVEVLREVAAEIRWDLQAYRHN
- ELISA ratio [3]: 4.17
